In publication doi:10.1101/713511:

Columns and labels:
[1] = tested on: T1, Atto550-SERF1a (human), O75920-2; experiment: fluorescence anisotropy
T1 sequence: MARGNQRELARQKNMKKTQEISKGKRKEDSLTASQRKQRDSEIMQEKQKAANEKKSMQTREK

MOAG-4 (C. elegans) = experiment: fluorescence anisotropy

Row | Substance | Kd [1] | Kd (MOAG-4 (C. elegans))
1 | tRNA (type X-SA) | 1.1 µM | 
2 | ACUGCUAGAGAUUUUCCACAU [Cy3-R21(-)] |  | 4.79 µM
